The values below come from US20230374132A1 (Innovent, published 2023).

Assay [1] concerns the target T1, cynomolgus monkey CD3 E&D complex protein (Sino Biological Inc., CT032-00323H) (cynomolgus monkey, UniProt Q95LI5 22-117; Q95LI8 22-105).
T1 construct: bought heterodimer
The assay is described as follows: BLI, antibody on sensor. How it is done: (§1) 100 μl SD buffer, various antibodies, human CD3 E&D complex protein (Sino Biological Inc., CT026H0323H), and cynomolgus monkey CD3 E&D complex protein (Sino Biological Inc., CT032-00323H) were added into 96-well black polystyrene semi-quantitative micro-well plate (Greiner, 675076) respectively. Fortebio Octet Red 96 was used for detection, and the sensor position was selected according to the sample position. The setting parameters of the instrument are as follows: operation steps: Baseline, Loading-1 nm, Baseline, Association and Dissociation; the operation time of each step depends on the speed of sample association and dissociation. The rotational speed is 1000 rpm and the temperature is 30° C. ForteBio Octet analysis software was used to analyze KD value.
Background: BLI is a label-free optical method that tracks binding on a fibre tip over time.

In assay [2] the target is T2, human CD3 E&D complex protein (Sino Biological Inc., CT026H0323H) (human, UniProt P07766 23-126; P04234 22-105).
T2 construct: bought heterodimer; also called human CD3 protein (CT026H0323H)
T2 sequence (P07766 23-126, chain 1 of 2): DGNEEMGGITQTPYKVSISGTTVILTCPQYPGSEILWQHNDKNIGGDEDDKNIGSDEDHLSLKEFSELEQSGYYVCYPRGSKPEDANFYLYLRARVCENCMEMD
T2 sequence (P04234 22-105, chain 2 of 2): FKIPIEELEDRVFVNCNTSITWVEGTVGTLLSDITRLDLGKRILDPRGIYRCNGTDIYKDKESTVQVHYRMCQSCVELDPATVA
In words: BLI, antibody on sensor. The procedure:
as §1

T1 sequence (Q95LI5 22-117, chain 1 of 2): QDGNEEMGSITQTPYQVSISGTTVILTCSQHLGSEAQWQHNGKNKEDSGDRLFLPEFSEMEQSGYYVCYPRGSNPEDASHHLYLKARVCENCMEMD
T1 sequence (Q95LI8 22-105, chain 2 of 2): as the sequence (P04234 22-105, chain 2 of 2) above, with I5V, N15K, I20V, S32T, D33N, I34N, T64A, S74N, V83L counted along it

B1: hzsp34.22 (antibody, human IgG1, lambda, L234A L235A, V domains shown)
VH: EVQLVESGGGLVQPGGSLKLSCAASGFTFNTYAMNWVRQASGKGLEWVGRIRSKYNNYATYYADSVKDRFTISRDDSKNTLYLQMNSLKTEDTAVYYCARHGNFGNSYVSWFAYWGQGTTVTVSS
VL: QAVVTQEPSLTVSPGGTVTLTCRSSTGAVTTSNYANWVQQKPGQAPRGLIGGTNKRAPGVPARFSGSLLGDKAALTLLGAQPEDEAEYYCALWYSNLWVFGQGTKLTVLG
notes: IgG1 L234A L235A, lambda
For the molecule B1, in assay [1], the Kd was found to be 0.585 nM, the koff was 0.000886 s⁻¹ and the kon was found to be 1.52e+06 M⁻¹ s⁻¹. In assay [2], the Kd was determined as 0.605 nM, the koff stood at 0.00214 s⁻¹ and the on-rate (kon) amounted to 3.54e+06 M⁻¹ s⁻¹.

B2: hzsp34.13 (antibody, human IgG1, lambda, L234A L235A, V domains shown)
VH: EVQLVESGGGLVQPGGSLKLSCAASGFTFNTYAMNWVRQASGKGLEWVGRIRSKYNNYATYYADSVKDRFTISRDDSKSTLYLQMNSLKTEDTAVYYCARHGNFGNSYVSWFAYWGQGTTVTVSS
VL: QAVVTQEPSLTVSPGGTVTLTCRSSTGAVTTSNYANWVQQKPGQAPRTLIGGTNKRAPGVPARFSGSLLGGKAALTLLGAQPEDEAEYYCALWYSNLWVFGQGTKLTVLG
notes: IgG1 L234A L235A, lambda
In assay [1], B2 had a Kd of 1.75 nM, a koff of 0.00164 s⁻¹ and a kon of 937000 M⁻¹ s⁻¹. For the same molecule, in assay [2], binding was put at a Kd of 4.33 nM, the koff came out at 0.00466 s⁻¹ and the kon was 1.08e+06 M⁻¹ s⁻¹.

B3: hzsp34.25 (antibody, human IgG1, lambda, L234A L235A, V domains shown)
VH: EVQLVESGGGLVQPGGSLKLSCAASGFTFNTYAMNWVRQASGKGLEWVARIRSKYNNYATYYADSVKDRFTISRDDSKSTLYLQMNSLKTEDTAVYYCARHGNFGQSYVSWFAYWGQGTTVTVSS
VL: QAVVTQEPSLTVSPGGTVTLTCRSSTGAVTTSNYANWVQQKPGQAPRGLIGGTNKRAPGVPARFSGSLLGDKAALTLLGAQPEDEAEYYCALWYSNLWVFGQGTKLTVLG
notes: IgG1 L234A L235A, lambda
B3: in assay [1], the Kd came out at 0.857 nM, the koff was found to be 0.000913 s⁻¹ and the kon is 1.07e+06 M⁻¹ s⁻¹. In assay [2], this molecule displayed a Kd of 1.17 nM, a koff of 0.00273 s⁻¹ and a kon of 2.35e+06 M⁻¹ s⁻¹.

B4: hzsp34.7 (antibody, human IgG1, lambda, L234A L235A, V domains shown)
VH: EVQLVESGGGLVQPGGSLKLSCAASGFTFNTYAMNWVRQASGKGLEWVGRIRSKYNNYATYYADSVKDRFTISRDDSKNTLYLQMNSLKTEDTAVYYCARHGNFGNSYVSWFAYWGQGTTVTVSS
VL: QAVVTQEPSLTVSPGGTVTLTCRSSTGAVTTSNYANWFQQKPGQAPRTLIYGTNKRAPWTPARFSGSLLGGKAALTLLGAQPEDEAEYYCALWYSNLWVFGQGTKLTVLG
notes: IgG1 L234A L235A, lambda
In assay [1], B4 displayed a Kd of 1.66 nM, a koff of 0.000463 s⁻¹ and a kon of 279000 M⁻¹ s⁻¹. The binding result in assay [2] is on record as “no binding”.

B5: hzsp34.32 (antibody, human IgG1, kappa, L234A L235A, V domains shown)
VH: EVQLVESGGGLVQPGGSLKLSCAASGFTFNTYAMNWVRQASGKGLEWVGRIRSKYNNYATYYADSVKDRFTISRDDSKNTLYLQMNSLKTEDTAVYYCARHGNFGNSYVSWFAYWGQGTTVTVSS
VL: EIVMTQSPATLSVSPGERATLSCRSSTGAVTTSNYANWVQQKPGQAPRLLIGGTNKRAPGVPARFSGSGSGTEFTLTISSLQSEDFAVYYCALWYSNLWVFGQGTKLTVLR
notes: IgG1 L234A L235A, kappa
B5: the binding result in assay [1] and in assay [2] was “no binding” throughout.

B6: hzsp34.23 (antibody, human IgG1, lambda, L234A L235A, V domains shown)
VH: EVQLVESGGGLVQPGGSLKLSCAASGFTFNTYAMNWVRQASGKGLEWVGRIRSKYNNYATYYADSVKDRFTISRDDSKSTLYLQMNSLKTEDTAVYYCARHGNFGNSYVSWFAYWGQGTTVTVSS
VL: QAVVTQEPSLTVSPGGTVTLTCRSSTGAVTTSNYANWVQQKPGQAPRGLIGGTNKRAPGVPARFSGSLLGDKAALTLLGAQPEDEAEYYCALWYSNLWVFGQGTKLTVLG
notes: IgG1 L234A L235A, lambda
As to B6, in assay [1], the Kd was found to be 0.605 nM, the koff was found to be 0.000791 s⁻¹ and the kon was 1.31e+06 M⁻¹ s⁻¹. For the same molecule, in assay [2], the Kd is 0.554 nM, the koff was determined as 0.00198 s⁻¹ and the kon was 3.57e+06 M⁻¹ s⁻¹.

B7: hzsp34.34 (antibody, human IgG1, kappa, L234A L235A, V domains shown)
VH: EVQLVESGGGLVQPGGSLKLSCAASGFTFNTYAMNWVRQASGKGLEWVGRIRSKYNNYATYYADSVKDRFTISRDDSKSTLYLQMNSLKTEDTAVYYCARHGNFGQSYVSWFAYWGQGTTVTVSS
VL: EIVMTQSPATLSVSPGERATLSCRSSTGAVTTSNYANWVQQKPGQAPRLLIGGTNKRAPGVPARFSGSGSGTEFTLTISSLQSEDFAVYYCALWYSNLWVFGQGTKLTVLR
notes: IgG1 L234A L235A, kappa
As to B7, the binding result in assay [1] and in assay [2] was “no binding” throughout.

B8: hzsp34.37 (antibody, human IgG1, kappa, L234A L235A, V domains shown)
VH: EVQLVESGGGLVQPGGSLKLSCAASGFTFNTYAMNWVRQASGKGLEWVGRIRSKYNNYATYYADSVKDRFTISRDDSKNTLYLQMNSLKTEDTAVYYCARHGNFGNSYVSWFAYWGQGTTVTVSS
VL: EIVMTQSPATLSVSPGERATLSCRSSTGAVTTSNYANWVQQKPGQAPRGLIGGTNKRAPGVPARFSGSGSGTEFTLTISSLQSEDFAVYYCALWYSNLWVFGQGTKLTVLR
notes: IgG1 L234A L235A, kappa
Regarding B8, in assay [1], the Kd stood at 6.24 nM, the koff was determined as 0.002 s⁻¹ and the kon was 321000 M⁻¹ s⁻¹. In assay [2], this molecule gave a Kd of 9.16 nM, an off-rate (koff) of 0.00399 s⁻¹ and a kon of 436000 M⁻¹ s⁻¹.

B9: hzsp34.29 (antibody, human IgG1, kappa, L234A L235A, V domains shown)
VH: EVQLVESGGGLVQPGGSLKLSCAASGFTFNTYAMNWVRQASGKGLEWVGRIRSKYNNYATYYADSVKDRFTISRDDSKSTLYLQMNSLKTEDTAVYYCARHGNFGQSYVSWFAYWGQGTTVTVSS
VL: EIVMTQSPATLSVSPGERATLSCRSSTGAVTTSNYANWYQQKPGQAPRLLIYGTNKRAPGIPARFSGSGSGTEFTLTISSLQSEDFAVYYCALWYSNLWVFGQGTKLTVLR
notes: IgG1 L234A L235A, kappa
On to B9, for which the binding result in assay [1] and in assay [2] was “no binding” each time.

B10: hzsp34.39 (antibody, human IgG1, kappa, L234A L235A, V domains shown)
VH: EVQLVESGGGLVQPGGSLKLSCAASGFTFNTYAMNWVRQASGKGLEWVGRIRSKYNNYATYYADSVKDRFTISRDDSKSTLYLQMNSLKTEDTAVYYCARHGNFGQSYVSWFAYWGQGTTVTVSS
VL: EIVMTQSPATLSVSPGERATLSCRSSTGAVTTSNYANWVQQKPGQAPRGLIGGTNKRAPGVPARFSGSGSGTEFTLTISSLQSEDFAVYYCALWYSNLWVFGQGTKLTVLR
notes: IgG1 L234A L235A, kappa
For B10, in assay [1], the affinity, expressed as Kd, was 7.1 nM; the koff is 0.00203 s⁻¹; the kon was found to be 286000 M⁻¹ s⁻¹. In assay [2], this molecule registered a Kd of 7.85 nM, a koff of 0.00354 s⁻¹ and a kon of 451000 M⁻¹ s⁻¹.

B11: hzsp34.27 (antibody, human IgG1, kappa, L234A L235A, V domains shown)
VH: EVQLVESGGGLVQPGGSLKLSCAASGFTFNTYAMNWVRQASGKGLEWVGRIRSKYNNYATYYADSVKDRFTISRDDSKNTLYLQMNSLKTEDTAVYYCARHGNFGNSYVSWFAYWGQGTTVTVSS
VL: EIVMTQSPATLSVSPGERATLSCRSSTGAVTTSNYANWYQQKPGQAPRLLIYGTNKRAPGIPARFSGSGSGTEFTLTISSLQSEDFAVYYCALWYSNLWVFGQGTKLTVLR
notes: IgG1 L234A L235A, kappa
Turning to B11, the binding result in assay [1] and in assay [2] was “no binding” throughout.

B12: hzsp34.43 (antibody, human IgG1, kappa, L234A L235A, V domains shown)
VH: EVQLVESGGGLVQPGGSLKLSCAASGFTFNTYAMNWVRQASGKGLEWVGRIRSKYNNYATYYADSVKDRFTISRDDSKSTLYLQMNSLKTEDTAVYYCARHGNFGNSYVSWFAYWGQGTTVTVSS
VL: EIVMTQSPATLSVSPGERATLSCRSSTGAVTTSNYANWVQQKPGQAPRGLIGGTNKRAPGVPARFSGSGSGDEFTLTISSLQSEDFAVYYCALWYSNLWVFGQGTKLTVLR
notes: IgG1 L234A L235A, kappa
Take B12: in assay [1], the equilibrium dissociation constant (Kd) came out at 7.92 nM, the dissociation rate constant (koff) is 0.00201 s⁻¹ and the kon was determined as 253000 M⁻¹ s⁻¹. For the same molecule, in assay [2], the Kd stood at 12.6 nM, the koff was 0.00453 s⁻¹ and the kon was determined as 359000 M⁻¹ s⁻¹.

B13: hzsp34.30 (antibody, human IgG1, kappa, L234A L235A, V domains shown)
VH: EVQLVESGGGLVQPGGSLKLSCAASGFTFNTYAMNWVRQASGKGLEWVARIRSKYNNYATYYADSVKDRFTISRDDSKSTLYLQMNSLKTEDTAVYYCARHGNFGQSYVSWFAYWGQGTTVTVSS
VL: EIVMTQSPATLSVSPGERATLSCRSSTGAVTTSNYANWYQQKPGQAPRLLIYGTNKRAPGIPARFSGSGSGTEFTLTISSLQSEDFAVYYCALWYSNLWVFGQGTKLTVLR
notes: IgG1 L234A L235A, kappa
Take B13: the binding result in assay [1] and in assay [2] was “no binding” throughout.

B14: hzsp34.44 (antibody, human IgG1, kappa, L234A L235A, V domains shown)
VH: EVQLVESGGGLVQPGGSLKLSCAASGFTFNTYAMNWVRQASGKGLEWVGRIRSKYNNYATYYADSVKDRFTISRDDSKSTLYLQMNSLKTEDTAVYYCARHGNFGQSYVSWFAYWGQGTTVTVSS
VL: EIVMTQSPATLSVSPGERATLSCRSSTGAVTTSNYANWVQQKPGQAPRGLIGGTNKRAPGVPARFSGSGSGDEFTLTISSLQSEDFAVYYCALWYSNLWVFGQGTKLTVLR
notes: IgG1 L234A L235A, kappa
With B14, in assay [1], binding was characterised by a dissociation constant (Kd) of 12.1 nM, the koff was 0.00293 s⁻¹ and the kon came out at 241000 M⁻¹ s⁻¹. In assay [2], this molecule returned a Kd of 16.5 nM, a koff of 0.00581 s⁻¹ and an on-rate (kon) of 353000 M⁻¹ s⁻¹.

B15: hzsp34.35 (antibody, human IgG1, kappa, L234A L235A, V domains shown)
VH: EVQLVESGGGLVQPGGSLKLSCAASGFTFNTYAMNWVRQASGKGLEWVARIRSKYNNYATYYADSVKDRFTISRDDSKSTLYLQMNSLKTEDTAVYYCARHGNFGQSYVSWFAYWGQGTTVTVSS
VL: EIVMTQSPATLSVSPGERATLSCRSSTGAVTTSNYANWVQQKPGQAPRLLIGGTNKRAPGVPARFSGSGSGTEFTLTISSLQSEDFAVYYCALWYSNLWVFGQGTKLTVLR
notes: IgG1 L234A L235A, kappa
Take B15: the binding result in assay [1] and in assay [2] was “no binding” throughout.

A word on the Kd: it is the constant that tells how readily two partners part at equilibrium. A word on the koff: it is a measure of how fast the partners let go of each other. In general, kon refers to the second-order rate constant of association.
